In one test the test system is hIFNg promoter. The experiment in a line: NHR-promoter luciferase screen, hIFNg promoter. The format is cell-based, human. The settings on record: for Luc. act., normalized to lacZ / Normalized Luc. act., normalized to control: IFNg promoter, HR component without or with ligand; for hIFNg promoter reporter activity: transcription factor +/- ligand, control = 1.00. The essentials: (§1)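 CV-1 cells were co-transfected with 50 ng NHR (homodimer or NHR/RXR heterodimer), 100 ng promoter-luciferase construct and 50 ng LacZ. Luciferase was normalized to LacZ and to a no-NHR/no-ligand control.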

The test system of another test is mADRP promoter. The experiment in a line: NHR-promoter luciferase screen, mADRP promoter. The test is classed as cell-based, mouse. The settings on record: for Luc. act., normalized to lacZ / Normalized Luc. act., normalized to control: ADRP promoter, HR/ligand component; for mADRP promoter reporter activity: transcription factor +/- ligand, control = 1.00. The procedure, abridged:
as §1

The test system of a further test is mDio2 promoter. The experiment in a line: NHR-promoter luciferase screen, mDio2 promoter. The format is cell-based, mouse. The settings on record: for Luc. act., normalized to lacZ / Normalized Luc. act., normalized to control: Dio2, HR component without or with its ligand; for mDio2 promoter reporter activity: transcription factor +/- ligand, control = 1.00. The essentials:
as §1

A further test has as its system MCP-1 promoter. Nature of the test: NHR-promoter luciferase screen, MCP-1 promoter. The format is cell-based. The settings on record: for Normalized Luc. act., normalized to control: MCP-1 promoter reporter, HR without or with its ligand, relative to control; for mMCP-1 promoter reporter activity: transcription factor +/- ligand, control = 1.00. The essentials:
as §1

The subject of another test is Bmal1 promoter. The experiment in a line: NHR-promoter luciferase screen, Bmal1 promoter. The settings on record: for Luc. act., normalized to lacZ / Normalized Luc. act., normalized to control: Bmal1 promoter, HR component without or with ligand; for mBmal1 promoter reporter activity: transcription factor +/- ligand, control = 1.00. The test is classed as cell-based, mouse. The procedure, abridged: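 Luciferase activity was measured 48 h after transfection, normalized to LacZ and then to a control lacking NHR or ligand. CV-1 cells carried 100 ng Bmal1 reporter, 50 ng NHR construct and 50 ng LacZ.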

The next test has as its system mUCP3 promoter. The experiment in a line: NHR-promoter luciferase screen, mUCP3 promoter. The test is classed as cell-based, mouse. The settings on record: for Normalized Luc. act., normalized to control / Luc. act., normalized to lacZ: mUCP3 promoter reporter; for Normalized Luc. act., normalized to control: HR without or with its ligand, relative to control; for Luc. act., normalized to lacZ: hormone receptor (HR) without or with its ligand; for mUCP3 promoter reporter activity: transcription factor +/- ligand, control = 1.00. The essentials: as §1

Results on two molecules are retold here after patent US20110263454A1, “Methods of Identifying Functional Characteristics of Promoters, Transcription Modifying Proteins and Transcription Modulating Agents” (Salk Institute for Biological Studies, priority 2008, published 2011).

B1: CTF2: COUP-TF2 (NR2F2), cDNA driver (protein, UniProt P24468 1-414, looked up)
COUP transcription factor 2: MAMVVSTWRDPQDEVPGSQGSQASQAPPVPGPPPGAPHTPQTPGQGGPASTPAQTAAGGQGGPGGPGSDKQQQQQHIECVVCGDKSSGKHYGQFTCEGCKSFFKRSVRRNLSYTCRANRNCPIDQHHRNQCQYCRLKKCLKVGMRREAVQRGRMPPTQPTHGQFALTNGDPLNCHSYLSGYISLLLRAEPYPTSRFGSQCMQPNNIMGIENICELAARMLFSAVEWARNIPFFPDLQITDQVALLRLTWSELFVLNAAQCSMPLHVAPLLAAAGLHASPMSADRVVAFMDHIRIFQEQVEKLKALHVDSAEYSCLKAIVLFTSDACGLSDVAHVESLQEKSQCALEEYVRSQYPNQPTRFGKLLLRLPSLRTVSSSVIEQLFFVRLVGKTPIETLIRDMLLSGSSFNWPYMAIQ
Turning to B1, in the test on hIFNg promoter, the “Luc. act., normalized to lacZ” value is reported as 35.0; the “Normalized Luc. act., normalized to control” value was 2.2; the “hIFNg promoter reporter activity” value was found to be 2.20. In addition, in the test on mADRP promoter, the “Luc. act., normalized to lacZ” value stood at 893.8; the “Normalized Luc. act., normalized to control” value came out at 1.8; the “mADRP promoter reporter activity” value is recorded as 1.80. Further, in the test on mDio2 promoter, the “Luc. act., normalized to lacZ” value was 18.8; the “Normalized Luc. act., normalized to control” value stood at 1.2; the “mDio2 promoter reporter activity” value worked out at 1.20. In the test with MCP-1 promoter, the “Normalized Luc. act., normalized to control” value is 0.0 and the “mMCP-1 promoter reporter activity” value stood at 0.00. Moreover, in the test with Bmal1 promoter, the “Luc. act., normalized to lacZ” value is 29.5; the “Normalized Luc. act., normalized to control” value came to 1.9; the “mBmal1 promoter reporter activity” value is reported as 1.89. In addition, in the test on mUCP3 promoter, the “Normalized Luc. act., normalized to control” value turned out to be 0.9; the “Luc. act., normalized to lacZ” value is given as 0.6; the “mUCP3 promoter reporter activity” value was 0.91.

B2: CTF1: COUP-TF1 (NR2F1), cDNA driver (protein, UniProt P10589 1-423, looked up)
COUP transcription factor 1: MAMVVSSWRDPQDDVAGGNPGGPNPAAQAARGGGGGAGEQQQQAGSGAPHTPQTPGQPGAPATPGTAGDKGQGPPGSGQSQQHIECVVCGDKSSGKHYGQFTCEGCKSFFKRSVRRNLTYTCRANRNCPIDQHHRNQCQYCRLKKCLKVGMRREAVQRGRMPPTQPNPGQYALTNGDPLNGHCYLSGYISLLLRAEPYPTSRYGSQCMQPNNIMGIENICELAARLLFSAVEWARNIPFFPDLQITDQVSLLRLTWSELFVLNAAQCSMPLHVAPLLAAAGLHASPMSADRVVAFMDHIRIFQEQVEKLKALHVDSAEYSCLKAIVLFTSDACGLSDAAHIESLQEKSQCALEEYVRSQYPNQPSRFGKLLLRLPSLRTVSSSVIEQLFFVRLVGKTPIETLIRDMLLSGSSFNWPYMSIQCS
With B2, in the test with hIFNg promoter, the “Luc. act., normalized to lacZ” value is recorded as 31.8; the “Normalized Luc. act., normalized to control” value turned out to be 2.0; the “hIFNg promoter reporter activity” value is listed as 2.00. For the same molecule, in the test with mADRP promoter, the “Luc. act., normalized to lacZ” value is reported as 393.3; the “Normalized Luc. act., normalized to control” value worked out at 0.8; the “mADRP promoter reporter activity” value is 0.79. Moreover, in the test on mDio2 promoter, the “Luc. act., normalized to lacZ” value was 15.7; the “Normalized Luc. act., normalized to control” value is given as 1.0; the “mDio2 promoter reporter activity” value turned out to be 1.00. Besides, in the test on MCP-1 promoter, the “Normalized Luc. act., normalized to control” value was 0.0 and the “mMCP-1 promoter reporter activity” value is recorded as 0.00. Also, in the test on Bmal1 promoter, the “Luc. act., normalized to lacZ” value was 26.1; the “Normalized Luc. act., normalized to control” value is 1.7; the “mBmal1 promoter reporter activity” value is given as 1.67. In addition, in the test on mUCP3 promoter, the “Normalized Luc. act., normalized to control” value came to 0.9; the “Luc. act., normalized to lacZ” value was determined as 0.6; the “mUCP3 promoter reporter activity” value stood at 0.93.
